Measured values published in US20240076353A1.

Target: IL-15R β protein
Assay: BLI (Octet-RED); IL-15R β immobilized on Ni-NTA biosensors, serial dilutions of the complex as analyte, global 1:1 fit

Sequence of IL-15R β protein (P14784 27-240): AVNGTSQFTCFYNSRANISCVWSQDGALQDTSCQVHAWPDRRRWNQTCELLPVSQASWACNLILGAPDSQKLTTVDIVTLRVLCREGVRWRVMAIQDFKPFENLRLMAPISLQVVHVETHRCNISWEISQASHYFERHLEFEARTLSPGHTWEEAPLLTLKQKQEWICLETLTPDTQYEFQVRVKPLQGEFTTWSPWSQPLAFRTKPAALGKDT

Substance: ALT803 (Fc fusion)
- Kd: 3.9 nM
- koff: 0.000235 s⁻¹
- kon: 60400 M⁻¹ s⁻¹
